This note sets out measurements from the supplement of paper PMC9170038.

This series concerns MS2 coat protein. Kind of series: apparent KD of MS2 coat protein; designed switch direction (-1 OFF switch, 1 ON switch): 1; higher = weaker reporter binding. Summed up: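 The buffer was Tris-HCl pH 7.5 with KCl, MgCl2, BSA, DTT, tRNA and Tween-20. In it, SNAP-549-labelled MS2 coat protein was titrated in doubling steps from 0.7 or 1.5 nM to 3 µM over chip-bound RNA switches transcribed by stalled E. coli RNA polymerase on Illumina chips. Apparent KD is the per-design median over clusters of curve fits to normalised fluorescence.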

Where [1] appears, read: input ligand: microRNA oligo, concentration not stated.
[2] abbreviates: Eterna round: R95, input ligand: FMN 200 uM.
The mark [3] stands for this setting: Eterna round: R95, input ligand: microRNA oligo, concentration not stated.
Where [4] appears, read: Eterna round: R95, input ligand: none.

Consider “UGUUUGUUGUGAGGAUAUACAUACACCUUACAUGAGGAUCACCCAUGUUGUAAUUUUGAUAGUUAGUAGAAGGCACUUGGUUAU [JR_SSNG2_Sub045] (Eterna round: R96, puzzle: Same State NG 2)”, for which the “apparent KD of MS2 coat protein” value is 35.2 nM (input ligand: FMN 200 uM), 64.3 nM under setting [1] and 71.5 nM (input ligand: none).
“UGUUUGUUGUGAGGAUAUACAUACACCUUACAUGAGGAUCACCCAUGUUGUUACUUUGAUAGUUAGUAGAAGGCACUUGGUUAU [JR_SSNG2_Sub047] (Eterna round: R96, puzzle: Same State NG 2)”: the “apparent KD of MS2 coat protein” value (input ligand: FMN 200 uM) stood at 94.9 nM, the “apparent KD of MS2 coat protein” value under setting [1] worked out at 91.6 nM and the “apparent KD of MS2 coat protein” value (input ligand: none) is 140 nM.
On the same counts, the results for “UUAAAGAAUUAAGGAUAUUGAAUACAUAUGUUUAACAUGAGGAUCACCCAUGUGGGUUGCGGUAUCGAGAAGGUAAAAUAAUAG [Mat - Same State NG 2 - JL mod - D5] (Eterna round: R96, puzzle: Same State NG 2)” are 108 nM, 106 nM and 118 nM.
As to “UUAAUGAAGUAAGGAUAUACAUGAGGAUUUCUCGUAGAAGGUACUAUACAUGAGGAUCACCCAUGUGCCGGUCAGAAGACUGGA [Mat - Same State NG 1 - JL mod - D10] (Eterna round: R96, puzzle: Same State NG 1)”, the “apparent KD of MS2 coat protein” value under setting [1] is 301 nM.
With “UUAAUGAUGAUAGGAUAUACAUGAGGAAUUCUCGUAGAAGGAUCAUGACAUGAGGAUCACCCAUGUAUCGCUCCGUAGAGCGUA [JL SSNG1 1.14] (Eterna round: R96, puzzle: Same State NG 1)”, the “apparent KD of MS2 coat protein” value reads like this: (input ligand: FMN 200 uM) 934 nM; under setting [1], 233 nM; (input ligand: none) 676 nM.
For “UUAAUGAUGUAAGGAUAUACAUGAGGAUUUCUCGUAGAAGGUACAAGACAUGAGGAUCACCCAUGUGUCGCUCCGUAGAGCGUA [JL SSNG1 1.09] (Eterna round: R96, puzzle: Same State NG 1)”, the “apparent KD of MS2 coat protein” value under setting [1] came to 132 nM.
Consider “UUACUCAUGUAAGGAUAUGCAGCCGUUUCGGCUGCAGAAGGUACUAUAAUACAUGAGGAUCACCCAUGUCUUUUUAAUUUUGAC [JL SSNG1 1.27] (Eterna round: R96, puzzle: Same State NG 1)”, for which the “apparent KD of MS2 coat protein” value turned out to be 79.3 nM (input ligand: FMN 200 uM), 34.5 nM under setting [1] and 39.2 nM (input ligand: none).
On the same counts, the results for “UUAUUAAUUACAUGAGGAUCACCCAUGUUUUUAUGUCAGAGACAGGAUAUAGAAGUCUCGUUUUACUAGAAGGGUCAUUAUAAG [JR_SSNG3_Sub015] (Eterna round: R96, puzzle: Same State NG 3)” are 18.6 nM, 16.4 nM and 19.2 nM.
For “UUAUUAUUUACAUGAGGAUCACCCAUGUUUUUAUGUCUUAGACAGGAUAUAGUAGUCUCGUUUUACUAGAAGGGUCUUUUUAUU [JR_SSNG3_Sub018] (Eterna round: R96, puzzle: Same State NG 3)”, in that order: 21.3 nM, 31.9 nM and 39.4 nM.
In the case of “UUCCACGUUGCACAGGAUAUCCAAGCCGUGACAUGAGGAUCACCCAUGUCUAGUAGGCGACUAAGGGAGAAGGGUGUUGUCGUGC [Biuser] (puzzle: Same State 2)”, the “apparent KD of MS2 coat protein” value reads like this: under setting [2], 10.8 nM; under setting [3], 10.1 nM; under setting [4], 10.1 nM.
Regarding “UUCUCAUUUACAUGAGGAUCACCCAUGUUUUUUUGUAGGAAAUAGGAUAUAGGUCUCUCGUUUUACUAGAAGGAUUUCCUUAUU [JR_SSNG3_Sub090] (Eterna round: R96, puzzle: Same State NG 3)”, the “apparent KD of MS2 coat protein” value amounted to 51.5 nM (input ligand: FMN 200 uM), 38 nM under setting [1] and 48.5 nM (input ligand: none).
On the same counts, the results for “UUCUCUCUGGUAGGAUAUGUAGGAUAUGUACAUGAGGAUCACCCAUGUCAGUUAAUGACAGAAGGAUAGAAGGACCAGAUCUCU [pwkr ssNG2 2FMN 1F5s.2] (Eterna round: R96, puzzle: Same State NG 2)” are 115 nM, 72.4 nM and 127 nM.
On the same counts, the results for “UUGAAGAAUAUAGGAUAUUGAAUACAUAUGUUUAACAUGAGGAUCACCCAUGUGGGUUGCGGUAUCGAGAAGGAUAAAUAAAAG [Mat - Same State NG 2 - JL mod - D14] (Eterna round: R96, puzzle: Same State NG 2)” are 203 nM, 162 nM and 181 nM.
For “UUGAAGAAUUAAGGAUAUCGAGUCGUCUAAUUAAACAUGAGGAUCACCCAUGUGGGUUGCGGUAUCGAGAAGGUAAAUUACUAG [JL JR Sub099 mod 3] (Eterna round: R96, puzzle: Same State NG 2)”, in that order: 25.2 nM, 22.8 nM and 37 nM.
For “UUGAAGAAUUAAGGAUAUUGAGUACAUAUGUAAAACAUGAGGAUCACCCAUGUGGGUUGCGGUAUCGAGAAGGUAAAAUAAUAG [Mat - same State NG 2 - JL mod - D71] (Eterna round: R96, puzzle: Same State NG 2)”, the “apparent KD of MS2 coat protein” value was determined as 74.5 nM (input ligand: FMN 200 uM), 79.6 nM under setting [1] and 81.6 nM (input ligand: none).
For “UUGAGAAAUUAAGGAUAUUGAGUACAUAUGUUUAACAUGAGGAUCACCCAUGUGGGUUGCGGUAUCGAGAAGGUAAAUUACUAG [Mat - same State NG 2 - JL mod - D72] (Eterna round: R96, puzzle: Same State NG 2)”, in that order: 138 nM, 64.7 nM and 112 nM.
As for “UUGCGCUGUCGAGAGGAUAUGCGGUGUUGGACAUGAGGAUCACCCAUGUUAGCGAUAGCUUUACGGUAGAAGGCUCUUCAGCUGC [salish99_ss2_r3_097] (puzzle: Same State 2)”, under setting [3], the “apparent KD of MS2 coat protein” value worked out at 99 nM.
Consider “UUGCGGGCUUGAGGAUAUUGAGUACAUAUGUUUAACAUGAGGAUCACCCAUGUGGGUUGCGGUAUCGAGAAGGUAACUUCCUUC [salish99_SSNG2_r04_810] (Eterna round: R96, puzzle: Same State NG 2)”, for which the “apparent KD of MS2 coat protein” value was 190 nM (input ligand: FMN 200 uM), 146 nM under setting [1] and 157 nM (input ligand: none).
On the same counts, the results for “UUGGUACAUGAGGAUCACCCAUGUGGGUCGGUCGCAGGAUAUGCCCGUGGGCGCUUGCGGGCAGAAGGGUGCCGUA [Same State1-X] (Eterna round: R96, puzzle: Same State 1)” are 173 nM, 386 nM and 1000 nM.
Take “UUGUUUCGUCAUUAACAUGAGGAUCACCCAUGUAAAGGAGCAGAGGAUAUGCAUGUUUGAUUGUAGCAGAAGGCUGAUUGUUGU [JR_SSNG3_Sub034] (Eterna round: R96, puzzle: Same State NG 3)”: the “apparent KD of MS2 coat protein” value (input ligand: FMN 200 uM) stood at 32.6 nM, the “apparent KD of MS2 coat protein” value under setting [1] came to 27.9 nM and the “apparent KD of MS2 coat protein” value (input ligand: none) was found to be 31.9 nM.
For “UUGUUUCGUCAUUAACAUGAGGAUCACCCAUGUAUUGACCCAAAGGAUAUAUAUGUUUGUUUGUAAUAGAAGGUUGAUUGUUGU [JR_SSNG3_Sub091] (Eterna round: R96, puzzle: Same State NG 3)”, in that order: 19.9 nM, 16.8 nM and 20.6 nM.
Turning to “UUUAGAUUCAGAGGAUAUUGAUGUUGUAUUUUACAAGAAGGCUGAUUGGUUUGAAAUGUUAUUAAACAUGAGGAUCACCCAUGU [JR_SSNG1_Sub012] (Eterna round: R96, puzzle: Same State NG 1)”, the “apparent KD of MS2 coat protein” value runs as follows: (input ligand: FMN 200 uM) 31.7 nM; under setting [1], 32.3 nM; (input ligand: none) 44.5 nM.
On the same counts, the results for “UUUAGUUGCGCGCAGGAUAUGUAUUAAUAUACAUGAGGAUCACCCAUGUGAGACCAAAUAGGUCUACAGAAGGGCGAAUCGCGAC [Laonerce - 29] (Eterna round: R96, puzzle: Same State 2)” are 42.6 nM, 182 nM and 354 nM.
In the case of “UUUAGUUGCGCGCAGGAUAUGUAUUAAUAUACAUGAGGAUCACCCAUGUGAGACCAAAUAGGUCUACAGAAGGGCGAAUCGCGAC [Laonerce - 29] (puzzle: Same State 2)”, the “apparent KD of MS2 coat protein” value under setting [2] is 29.4 nM, the “apparent KD of MS2 coat protein” value under setting [3] is 234 nM and the “apparent KD of MS2 coat protein” value under setting [4] was 715 nM.
On the same counts, the results for “UUUAGUUGCGGGCAGGAUAUGUAUUAAAGUACAUGAGGAUCACCCAUGUGCGGGUAUAACACCCGACAGAAGGGCCAAUCGCGAC [Laonerce - 1] (puzzle: Same State 2)” are 17.7 nM, 64.3 nM and 115 nM.
Consider “UUUAUACAUGAGGAUCACCCAUGUCAAUGUAGUCGAGGAUAUGGGCAGCCGUGAGGCGUACUAGAAGGCGAAGAGG [JL-ss1-3.09 ViennaUCT mod] (puzzle: Same State 1)”, for which the “apparent KD of MS2 coat protein” value under setting [3] turned out to be 117 nM.
As for “UUUUUAUAACAUGAGGAUCACCCAUGUGCGCGCACAAGGUUGUUGCUCGUCUUAUUUUUUUUUUUUUUUUUUUUUUU [viviankchen2] (puzzle: Sensor for hsa-mir-208a version 2)”, the “apparent KD of MS2 coat protein” value is 33.2 nM under setting [2], 220 nM under setting [3] and 44.1 nM under setting [4].
